Paper PMC10141540

T1: HU-B (Escherichia coli, UniProt P0ACF4 1-90)
T1 sequence: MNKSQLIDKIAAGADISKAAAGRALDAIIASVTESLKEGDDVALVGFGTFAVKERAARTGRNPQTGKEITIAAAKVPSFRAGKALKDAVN


Columns and labels:
HU-A = HU-A (Escherichia coli, UniProt P0ACF0 1-90); assay: EMSA
HU-B [1] = molecular target: T1, HU-B; assay: EMSA
HU-B [2] = molecular target: T1, HU-B; assay: condensate co-localization

Chain of HU-A (P0ACF0 whole entry): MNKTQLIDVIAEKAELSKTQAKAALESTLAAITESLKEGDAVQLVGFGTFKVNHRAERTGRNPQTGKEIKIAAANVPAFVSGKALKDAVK

Row | Binder | binding result (HU-A) | binding result (HU-B [1]) | binding result (HU-B [2])
1 | 4WJ DNA (structured_DNA) DNA 1: CCCTATAACCCCTGCATTGAATTCCAGTCTGATAA DNA 2: GTAGTCGTGATAGGTGCAGGGGTTATAGGG DNA 3: AACAGTAGCTCTTATTCGAGCTCGCGCCCTATCACGACTA DNA 4: TTTATCAGACTGGAATTCAAGCGCGAGCTCGAATAAGAGCTACTGT | binds | binds | 
2 | 20 bp dsDNA (dsDNA) DNA 1: GTTCAATTGTTGTTAACTTG DNA 2: CAAGTTAACAACAATTGAAC |  |  | binds
